Data set [1] concerns the molecule itself. Nature of the data set: crystal structure; hanging-drop vapor diffusion at 20°C; 20–30% PEG 4000 or PEG 6000, 0.2 M MgCl2, 100 mM Tris–HCl pH 8.5; protein 10–15 mg/ml; space group P212121.
For data set [2], the target named is T1, EcAIII α subunit (∼20 kDa) (Escherichia coli, UniProt P37595 1-178).
T1 construct: EcAIII of Escherichia coli, α subunit: cut product of the precursor up to the scissile bond Gly178-Thr179; the linker is partly degraded, residues 158-178 are not visible in the structures; also called subunit α; source: E. coli BL21 Gold, purified (DEAE-Sepharose, SEC); formed by autocleavage of the precursor
T1 sequence (looked up): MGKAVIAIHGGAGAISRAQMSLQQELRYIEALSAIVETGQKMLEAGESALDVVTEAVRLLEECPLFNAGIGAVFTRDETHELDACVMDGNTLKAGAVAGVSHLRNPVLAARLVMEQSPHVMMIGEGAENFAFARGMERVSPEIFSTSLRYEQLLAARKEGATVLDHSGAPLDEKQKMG
The data set is described as above. The following applies: both partners purified.

B1: EcAIII variant RDM1-18, mature (processed into α/β subunits) (complex, Escherichia coli)
chain 1: MGKAVIAIHGGAGAISRAQMSLQQELRYIEALSAIVETGQKMLEAGESALDVVTEAVRLLEECPLFNAGIGAVFTRDETHELDACVMDGNTLKAGAVAGVSHLRNPVLAARLVMEQSPHVMMIGEGAENFAFARGMERVSPEIFSTSLRYEQLLAARKEGATVLDHSGAPLDEKQKMG
chain 2: TVGAVALDLDGNLAAATSTGGMTNKLPGVVGPWPLVGAGCYANNASVAVSCTGTGEVFIRALAAYDIAALMDYGGLSLAEACERVVMEKLPALGGSGGLIAIDHEGNVALPFNTEGMYRAWGYAGDTPTTGIYREKGDTVATQ
notes: EcAIII of Escherichia coli, α subunit: cut product up to the scissile bond Gly178-Thr179; residues 158-178 not visible in the structure; source: E. coli BL21 Gold, purified (DEAE-Sepharose, SEC); copies: 2 + 2
Turning to B1, the binding result in data set [1] is recorded as “binds”.

B2: EcAIII variant RDM1-3, mature (processed into α/β subunits) (complex, Escherichia coli)
chain 1: MGKAVIAIHGGAGAISRAQMSLQQELRYIEALSAIVETGQKMLEAGESALDVVTEAVRLLEECPLFNAGIGAVFTRDETHELDACVMDGNTLKAGAVAGVSHLRNPVLAARLVMEQSPHVMMIGEGAENFAFARGMERVSPEIFSTSLRYEQLLAARKEGATVLDHSGAPLDEKQKMG
chain 2: TVGAVALDLDGNLAAATSTGGMTNKLPHTVGPQPLVGAGCYANNASVAVSCTGTGEVFIRALAAYDIAALMDYGGLSLAEACERVVMEKLPALGGSGGLIAIDHEGNVALPFNTEGMYRAWGYAGDTPTTGIYREKGDTVATQ
notes: EcAIII of Escherichia coli, α subunit: cut product up to the scissile bond Gly178-Thr179; residues 158-178 not visible in the structure; EcAIII of Escherichia coli, β subunit beginning at Thr179, with the substitutions of RDM1-3; source: E. coli BL21 Gold, purified (DEAE-Sepharose, SEC); copies: 2 + 2
With B2, the binding result in data set [1] is reported as “binds”.

B3: EcAIII β subunit of variant RDM1-3 (domain or fragment, Escherichia coli, UniProt P37595 179-321, looked up)
chain: TVGAVALDLDGNLAAATSTGGMTNKLPHTVGPQPLVGAGCYANNASVAVSCTGTGEVFIRALAAYDIAALMDYGGLSLAEACERVVMEKLPALGGSGGLIAIDHEGNVALPFNTEGMYRAWGYAGDTPTTGIYREKGDTVATQ
notes: EcAIII of Escherichia coli, β subunit beginning at Thr179, with the substitutions of RDM1-3; also called RDM1-3 β subunit; source: E. coli BL21 Gold, purified (DEAE-Sepharose, SEC); formed by autocleavage of the precursor
Turning to B3, the binding result in data set [2] is on record as “binds”.

B4: EcAIII β subunit of variant RDM1-38 (domain or fragment, Escherichia coli, UniProt P37595 179-321, looked up)
chain: TVGAVALDLDGNLAAATSTGGMTNKLPGCVGSVPLVGAGCYANNASVAVSCTGTGEVFIRALAAYDIAALMDYGGLSLAEACERVVMEKLPALGGSGGLIAIDHEGNVALPFNTEGMYRAWGYAGDTPTTGIYREKGDTVATQ
notes: EcAIII of Escherichia coli, β subunit beginning at Thr179, with the substitutions of RDM1-38; also called RDM1-38 β subunit; source: E. coli BL21 Gold, purified (DEAE-Sepharose, SEC); formed by autocleavage of the precursor
On to B4, for which the binding result in data set [2] is “binds”.

B5: EcAIII β subunit of variant RDM1-29 (domain or fragment, Escherichia coli, UniProt P37595 179-321, looked up)
chain: TVGAVALDLDGNLAAATSTGGMTNKLPCSVGLVPLVGAGCYANNASVAVSCTGTGEVFIRALAAYDIAALMDYGGLSLAEACERVVMEKLPALGGSGGLIAIDHEGNVALPFNTEGMYRAWGYAGDTPTTGIYREKGDTVATQ
notes: EcAIII of Escherichia coli, β subunit beginning at Thr179, with the substitutions of RDM1-29; also called RDM1-29 β subunit; source: E. coli BL21 Gold, purified (DEAE-Sepharose, SEC); formed by autocleavage of the precursor
Regarding B5, in data set [2], the binding result is recorded as “binds”.

B6: EcAIII β subunit of variant RDM1-12 (domain or fragment, Escherichia coli, UniProt P37595 179-321, looked up)
chain: TVGAVALDLDGNLAAATSTGGMTNKLPCTVGAAPLVGAGCYANNASVAVSCTGTGEVFIRALAAYDIAALMDYGGLSLAEACERVVMEKLPALGGSGGLIAIDHEGNVALPFNTEGMYRAWGYAGDTPTTGIYREKGDTVATQ
notes: EcAIII of Escherichia coli, β subunit beginning at Thr179, with the substitutions of RDM1-12; also called RDM1-12 β subunit; source: E. coli BL21 Gold, purified (DEAE-Sepharose, SEC); formed by autocleavage of the precursor
B6: in data set [2], the binding result is on record as “binds”.

B7: EcAIII β subunit of variant RDM1-37 (domain or fragment, Escherichia coli, UniProt P37595 179-321, looked up)
chain: TVGAVALDLDGNLAAATSTGGMTNKLPSTVGSSPLVGAGCYANNASVAVSCTGTGEVFIRALAAYDIAALMDYGGLSLAEACERVVMEKLPALGGSGGLIAIDHEGNVALPFNTEGMYRAWGYAGDTPTTGIYREKGDTVATQ
notes: EcAIII of Escherichia coli, β subunit beginning at Thr179, with the substitutions of RDM1-37 (Ser211 kept); also called RDM1-37 β subunit; source: E. coli BL21 Gold, purified (DEAE-Sepharose, SEC); formed by autocleavage of the precursor
With B7, the binding result in data set [2] was “binds”.

B8: EcAIII β subunit of variant RDM1-24 (domain or fragment, Escherichia coli, UniProt P37595 179-321, looked up)
chain: TVGAVALDLDGNLAAATSTGGMTNKLPGAVGSTPLVGAGCYANNASVAVSCTGTGEVFIRALAAYDIAALMDYGGLSLAEACERVVMEKLPALGGSGGLIAIDHEGNVALPFNTEGMYRAWGYAGDTPTTGIYREKGDTVATQ
notes: EcAIII of Escherichia coli, β subunit beginning at Thr179, with the substitutions of RDM1-24; also called RDM1-24 β subunit; source: E. coli BL21 Gold, purified (DEAE-Sepharose, SEC); formed by autocleavage of the precursor
On to B8, for which the binding result in data set [2] is listed as “binds”.

B9: EcAIII β subunit of variant RDM1-18 (domain or fragment, Escherichia coli, UniProt P37595 179-321, looked up)
chain: TVGAVALDLDGNLAAATSTGGMTNKLPGVVGPWPLVGAGCYANNASVAVSCTGTGEVFIRALAAYDIAALMDYGGLSLAEACERVVMEKLPALGGSGGLIAIDHEGNVALPFNTEGMYRAWGYAGDTPTTGIYREKGDTVATQ
notes: also called RDM1-18 β subunit; source: E. coli BL21 Gold, purified (DEAE-Sepharose, SEC); formed by autocleavage of the precursor
In the case of B9, the binding result in data set [2] is reported as “binds”.

The values are drawn from publication PMC9248843, “Structural and biophysical studies of new L-asparaginase variants: lessons from random mutagenesis of the prototypic Escherichia coli Ntn-amidohydrolase” (Acta Crystallographica. Section D, Structural Biology, 2022).
